Measured values reported in paper PMC12820563, “FoxP3 forms a head-to-head dimer in vivo and stabilizes its multimerization on adjacent microsatellites”.

Assays:
MBP-FoxP3dN = target: T1, MBP-FoxP3dN (Mus musculus, UniProt Q99JB6 188-423); assay: pull-down; comparable to IR-FKHM; Pull-down: 20 mM Tris-HCl pH 7.5, 100 mM NaCl, 1.5 mM MgCl2, room temperature, 0.4 uM MBP protein, 0.1 uM DNA (NFAT 0.2 uM); EMSA: 20 mM HEPES pH 7.5, 150 mM NaCl, 1.5 mM MgCl2, 2 mM DTT, 4 C, 0.2 uM DNA (RBR-FKH 0.8 uM, NFAT 0.4 uM); conditions: protein: recombinant; tags: His6-MBP; chain copies: 2; blunt
T1 sequence: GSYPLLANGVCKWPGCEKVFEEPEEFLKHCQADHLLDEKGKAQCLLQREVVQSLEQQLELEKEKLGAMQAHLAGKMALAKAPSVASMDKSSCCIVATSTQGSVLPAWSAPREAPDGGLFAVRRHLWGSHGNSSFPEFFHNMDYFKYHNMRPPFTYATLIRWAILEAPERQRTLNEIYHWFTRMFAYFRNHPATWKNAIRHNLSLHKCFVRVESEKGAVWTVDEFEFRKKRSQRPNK
Method in brief: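 0.4 µM MBP-tagged mouse FoxP3 fragment (plus 0.2 µM NFAT fragment where included) was mixed with 0.1 µM duplex DNA in Tris buffer with NaCl and MgCl2 at room temperature. Complexes were captured on amylose resin, and proteinase K-released DNA was run on 10% TBE gels stained with SYBR Gold. In a gel-shift arm, 0.2 µM DNA and protein were held 10 min at 4 °C in HEPES buffer, then run on native gels. Binding was judged qualitatively from gels.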

[1] = target: T2, FoxP3RBR-FoxP1FKH;NFAT1 DBD (Mus musculus;Mus musculus?, UniProt Q99JB6;Q60591 284-336+P58462:493-579;394-680, internal_change|); assay: EMSA; dimer; Pull-down: 20 mM Tris-HCl pH 7.5, 100 mM NaCl, 1.5 mM MgCl2, room temperature, 0.4 uM MBP protein, 0.1 uM DNA (NFAT 0.2 uM); EMSA: 20 mM HEPES pH 7.5, 150 mM NaCl, 1.5 mM MgCl2, 2 mM DTT, 4 C, 0.2 uM DNA (RBR-FKH 0.8 uM, NFAT 0.4 uM); conditions: protein: recombinant;recombinant; tags: none (His6-NusA cleaved);none (His6-NusA cleaved); chain copies: 2;1; blunt
T2 sequence 1: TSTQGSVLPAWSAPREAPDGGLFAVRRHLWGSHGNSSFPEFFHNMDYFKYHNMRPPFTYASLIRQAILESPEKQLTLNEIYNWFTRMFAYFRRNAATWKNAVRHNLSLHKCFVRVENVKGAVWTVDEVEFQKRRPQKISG
T2 sequence 2: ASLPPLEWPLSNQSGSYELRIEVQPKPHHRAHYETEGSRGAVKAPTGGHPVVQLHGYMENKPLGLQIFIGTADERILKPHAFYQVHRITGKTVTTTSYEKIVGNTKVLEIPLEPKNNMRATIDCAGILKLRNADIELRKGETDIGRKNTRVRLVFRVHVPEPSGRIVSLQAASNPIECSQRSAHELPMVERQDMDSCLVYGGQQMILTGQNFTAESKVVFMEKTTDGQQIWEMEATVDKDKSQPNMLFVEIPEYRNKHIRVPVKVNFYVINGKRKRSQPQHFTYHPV

FoxP3 RBR-FKH;NFAT1 DBD [2] = target: T3, FoxP3 RBR-FKH;NFAT1 DBD (Mus musculus;Mus musculus?, UniProt Q99JB6;Q60591 284-423;394-680, |); assay: as above; conditions: protein: recombinant;recombinant; tags: none (His6-NusA cleaved);none (His6-NusA cleaved); copies: 1;1; blunt
T3 sequence 1: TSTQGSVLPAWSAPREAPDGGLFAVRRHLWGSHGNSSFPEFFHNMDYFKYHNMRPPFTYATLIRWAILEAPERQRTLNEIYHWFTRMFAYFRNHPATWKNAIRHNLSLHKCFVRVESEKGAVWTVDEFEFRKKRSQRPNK
T3 sequence 2: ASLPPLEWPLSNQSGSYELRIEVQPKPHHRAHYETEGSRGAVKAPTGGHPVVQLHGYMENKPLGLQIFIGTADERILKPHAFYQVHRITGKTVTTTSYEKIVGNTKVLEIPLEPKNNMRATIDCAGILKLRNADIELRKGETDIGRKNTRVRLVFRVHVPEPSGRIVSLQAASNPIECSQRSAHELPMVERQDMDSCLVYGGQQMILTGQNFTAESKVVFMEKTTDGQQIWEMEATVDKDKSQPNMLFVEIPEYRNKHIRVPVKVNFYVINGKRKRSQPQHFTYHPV

[3] = target: T4, FoxP1RBR-FoxP3FKH;NFAT1 DBD (Mus musculus;Mus musculus?, UniProt P58462;Q60591 427-492+Q99JB6:337-423;394-680, internal_change|); assay: EMSA; monomer; Pull-down: 20 mM Tris-HCl pH 7.5, 100 mM NaCl, 1.5 mM MgCl2, room temperature, 0.4 uM MBP protein, 0.1 uM DNA (NFAT 0.2 uM); EMSA: 20 mM HEPES pH 7.5, 150 mM NaCl, 1.5 mM MgCl2, 2 mM DTT, 4 C, 0.2 uM DNA (RBR-FKH 0.8 uM, NFAT 0.4 uM); conditions: protein: recombinant;recombinant; tags: none (His6-NusA cleaved);none (His6-NusA cleaved); copies: 1;1; blunt
T4 sequence 1: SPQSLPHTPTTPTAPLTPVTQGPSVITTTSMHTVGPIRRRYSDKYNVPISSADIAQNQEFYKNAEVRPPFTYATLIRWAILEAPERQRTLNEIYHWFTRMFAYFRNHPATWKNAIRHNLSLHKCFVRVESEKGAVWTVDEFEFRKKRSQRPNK
T4 sequence 2: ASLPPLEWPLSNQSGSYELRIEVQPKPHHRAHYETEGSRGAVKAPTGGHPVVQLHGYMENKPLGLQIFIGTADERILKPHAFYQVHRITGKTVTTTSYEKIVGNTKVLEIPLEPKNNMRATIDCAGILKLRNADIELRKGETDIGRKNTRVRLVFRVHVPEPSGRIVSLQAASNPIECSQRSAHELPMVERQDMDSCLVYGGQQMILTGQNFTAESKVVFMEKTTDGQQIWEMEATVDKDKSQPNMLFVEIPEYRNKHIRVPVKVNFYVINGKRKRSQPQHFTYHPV

FoxP1 RBR-FKH;NFAT1 DBD = target: T5, FoxP1 RBR-FKH;NFAT1 DBD (Mus musculus;Mus musculus?, UniProt P58462;Q60591 427-579;394-680, |); assay: as above; conditions: protein: recombinant;recombinant; tags: none (His6-NusA cleaved);none (His6-NusA cleaved); copies: 1;1; blunt
T5 sequence 1: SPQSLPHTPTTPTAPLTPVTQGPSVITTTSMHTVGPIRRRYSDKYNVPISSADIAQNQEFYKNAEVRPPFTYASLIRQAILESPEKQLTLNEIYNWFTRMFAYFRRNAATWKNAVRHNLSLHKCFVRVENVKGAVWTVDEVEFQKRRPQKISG
T5 sequence 2: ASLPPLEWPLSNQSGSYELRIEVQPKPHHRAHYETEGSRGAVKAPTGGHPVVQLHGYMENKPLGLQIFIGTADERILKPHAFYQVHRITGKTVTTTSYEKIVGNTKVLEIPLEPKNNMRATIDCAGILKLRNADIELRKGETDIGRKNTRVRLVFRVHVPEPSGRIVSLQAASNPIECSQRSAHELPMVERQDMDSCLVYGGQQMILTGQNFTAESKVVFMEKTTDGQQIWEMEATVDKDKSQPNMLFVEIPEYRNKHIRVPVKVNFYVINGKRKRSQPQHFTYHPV

[4] = target: T2, FoxP3RBR-FoxP1FKH;NFAT1 DBD; assay: as above; conditions: protein: recombinant;recombinant; tags: none (His6-NusA cleaved);none (His6-NusA cleaved); chain copies: 2;1; blunt
FoxP3 RBR-FKH;NFAT1 DBD [5] = target: T3, FoxP3 RBR-FKH;NFAT1 DBD; assay: as above; conditions: protein: recombinant;recombinant; tags: none (His6-NusA cleaved);none (His6-NusA cleaved); copies: 1;1; blunt

B1: DNA 5 (Fig S1F) (dsDNA)
DNA 1: AATTTGTGTTTATCGAGTAAACAAATTT
DNA 2: AAATTTGTTTACTCGATAAACACAAATT
binding result (MBP-FoxP3dN): binds

B2: DNA 6 (Fig S1F) (dsDNA)
DNA 1: AATTTGCGCATTTCGAGTAAACAAATTT
DNA 2: AAATTTGTTTACTCGAAATGCGCAAATT
binding result (MBP-FoxP3dN): binds

B3: DNA 7 (Fig S1F) (dsDNA)
DNA 1: AATTTGCCGCATTCGAGTAAACAAATTT
DNA 2: AAATTTGTTTACTCGAATGCGGCAAATT
binding result (MBP-FoxP3dN): binds

B4: DNA 8 (Fig S1F) (dsDNA)
DNA 1: AATTTGTGTTGTTCGAGTAAACAAATTT
DNA 2: AAATTTGTTTACTCGAACAACACAAATT
binding result (MBP-FoxP3dN): binds

B5: DNA 9 (Fig S1F) (dsDNA)
DNA 1: AATTTGTGCATCTCGAGTAAACAAATTT
DNA 2: AAATTTGTTTACTCGAGATGCACAAATT
binding result (MBP-FoxP3dN): binds

B6: DNA 10 (Fig S1F) (dsDNA)
DNA 1: AATTTGTTGCATTCGAGTAAACAAATTT
DNA 2: AAATTTGTTTACTCGAATGCAACAAATT
binding result (MBP-FoxP3dN): binds

B7: DNA1 (NFAT IR-FKHM) (dsDNA)
DNA 1: TTAGGAAAATTTGTTTACTCGAGTAAACAAA
DNA 2: TTTGTTTACTCGAGTAAACAAATTTTCCTAA
binding result [1]: binds | binding result (FoxP3 RBR-FKH;NFAT1 DBD [2]): binds | binding result [3]: binds | binding result (FoxP1 RBR-FKH;NFAT1 DBD): binds

B8: DNA2 (NFAT sFKHM) (dsDNA)
DNA 1: TTAGGAAAATTTGTTTACTCCTCGCGGCAAA
DNA 2: TTTGCCGCGAGGAGTAAACAAATTTTCCTAA
binding result [4]: binds | binding result (FoxP3 RBR-FKH;NFAT1 DBD [5]): binds | binding result [3]: binds | binding result (FoxP1 RBR-FKH;NFAT1 DBD): binds
